Results on one molecule are retold here after patent publication US20200283529A1 (UNIVERSITY OF BRITISH COLUMBIA, published 2020).

Assay [1] has as its target T1, HLA-A*23:01 on FlowPRA Single Antigen beads (human, UniProt P13749 25-305 (Pan troglodytes entry), limits assumed).
T1 construct: Bought HLA class I antigen on One Lambda beads. b2m and peptide are not described
T1 MHC heavy: not shown
In words: single antigen FlowPRA bead assay, flow cytometry. (Flow cytometry measures light scatter and fluorescence of single cells or particles in a stream.)

Assay [2] addresses T2, HLA-A*24:02 on FlowPRA Single Antigen beads (human, UniProt P04439-2 25-302 at identity 0.92)).
T2 construct: Bought HLA class I antigen on One Lambda beads. b2m and peptide are not described
T2 MHC heavy: not shown
The assay is described as follows: single antigen FlowPRA bead assay, flow cytometry.

B1: BB7.2 antibody (antibody, IgG2b, V domains shown)
VH: QVQLQQSGPELVKPGASVKMSCKASGYTFTSYHIQWVKQRPGQGLEWIGWIYPGDGSTQYNEKFKGKTTLTADKSSSTAYMLLSSLTSEDSAIYFCAREGTYYAMDYWGQGTSVTVSS
VL: DVLMTQTPLSLPVSLGDQVSISCRSSQSIVHSNGNTYLEWYLQKPGQSPKLLIYKVSNRFSGVPDRFSGSGSGTDFTLKISRVEAEDLGVYYCFQGSHVPRTFGGGTKLEIK
notes: also called mouse monoclonal antibody (BB7.2)
As to B1, the binding result in assay [1] and in assay [2] was “no binding” in each case.
